The target of experiment [1] is V69A.
Experiment [2] concerns the target M104D.
Experiment [3] concerns the target I114W.
Experiment [4] concerns the target E68Q.
Experiment [5] has as its target L72I.
The target of experiment [6] is N71Y.

B1: CD25 (receptor)
chain: ELCDDDPPEIPHATFKAMAYKEGTMLNCECKRGFRRIKSGSLYMLCTGNSSHSSWDNQCQCTSSATRNTTKQVTPQPEEQKERKTTEMQSPMQPVDQASLPGHCREPPPWENEATERIYHFVVGQMVYYQCVQGYRALHRGPAESVCKMTHGKTRWTQPQLICTGEMETSQFPGEEKPQASPEGRPESETSCLVTTTDFQIQTEMAATMETSIFTTEYQHHHHHH
For B1, the Kd in experiment [1] worked out at 0.023 nM; in experiment [2], 0.028 nM; in experiment [3], 0.038 nM; in experiment [4] it was 0.022 nM; in experiment [5] it was 0.024 nM; in experiment [6], 0.018 nM.

(Values after patent US20220226442A1 (published 2022).)
